Experimental data published in the RNAGym collection of RNA variant scans (doi:10.7554/elife.90254).

B1: LINE1-full (parent)
chain: UACGUAGGUGGUUUUCCCCUGAUAGUGCUAAGGGGGCCUGGAAGUUUGGACUGGGCAGAGCUCAACACAGCGUGGCAAAGUGGCUGUGGCUAGACUGCCUCUCUGGAUUCCUCGUCACUCAGCAGGGCAUCUCUGAGAGAAAUGCC

Variants of: B1
Assay: self-cleavage, relative activity (ratio to wild type); higher = more cleavage; in vitro, sequencing; the parent is a self-cleaving ribozyme

Variant	self-cleavage
UACGUAGGUGGCUUUCCCCUGAUAGUGCUAAGGGGGCCUGGAAGUUUGGACUGGGCAGAGCUCAACACAGCGUGGCAAAGUGGCUGUGGCUAGACUGCCUCUCUGGAUUCCUCGUCACUCAGCAGGGCAUCUCUGAGAGAAACGCC [U12C U143C]	1.46
UACGUAGGUGGGUUUCCCCUGAUAGUGCUAAGGGGGCCUGGAAGUUUGGACUGGGUAGAGCUCAACACAGCGUGGCAAAGUGGCUGUGGCUAGACUGCCUCUCUGGAUUCCUCGUCACUCAGCAGGGCAUCUCUGAGAGAAAUGCC [U12G C56U]	0.22
UACGUAGGUGGGUUUCCCCUGAUAGUGCUAAGGGGGCCUGGAAGUUUGGACUGGGCAGAGCUCAACACAGCGUGGCAAAGUGGCUGUGGCUAGACUGCCUCUCUGGAUUCCUCGUCACUCAGCAGGGCGUCUCUGAGAGAAAUGCC [U12G A129G]	1.14
UACGUAGGUGGGUUUCCCCUGAUAGUGCUAAGGGGGCCUGGAAGUUUGGACUGGGCAGAGCUCAACACAGCGUGGCAAAGUGGCUGUGGCUAGACUGCCUCUCUGGAUUCCUCGUCACUCAGCAGGGCCUCUCUGAGAGAAAUGCC [U12G A129C]	1.1
UACGUAGGUGGGUUUCCCCUGAUAGUGCUAAGGGGGCCUGGAAGUUUGGACUGGGCAGAGCUCAACACAGCGUGGCAAAGUGGCUGUGGCUAGACUGCCUCUCUGGAUUCCUCGUCACUCUGCAGGGCAUCUCUGAGAGAAAUGCC [U12G A121U]	1.31
UACGUAGGUGGGUUUCCCCUGAUAGUGCUAAGGGGGCCUGGAAGUUUGGACUGGGCAGAGCUCAACACAGCGUGGCAAAGUGGCUGUGGCUAGACUGCCUCUCUGGAUUCCUCGUCACUCAGCAGGGCAUCUCUGUGAGAAAUGCC [U12G A136U]	0.76
UACGUAGGUGGGUUUCCCCUGAUAGUGCUAAGGGGGCCUGGAAGUUUGGACUGGGCAGAGCUCAACACUGCGUGGCAAAGUGGCUGUGGCUAGACUGCCUCUCUGGAUUCCUCGUCACUCAGCAGGGCAUCUCUGAGAGAAAUGCC [U12G A69U]	0.08
UACGUAGGUGGGUUUCCCCUGAUAGUGCUAAGGGGGCCUGGAAGUUUGGACUGGGCAGAGCUCAACACAGCGUGGCAAAGUGGCUGUGGCUAGACUGCCUCUCUGGAUUCCUCGUUACUCAGCAGGGCAUCUCUGAGAGAAAUGCC [U12G C116U]	0.62
UACGUAGGUGGGUUUCCCCUGAUAGUGCUAAGGGGGCCUGGAAGUUUGGACUGGGCAGUGCUCAACACAGCGUGGCAAAGUGGCUGUGGCUAGACUGCCUCUCUGGAUUCCUCGUCACUCAGCAGGGCAUCUCUGAGAGAAAUGCC [U12G A59U]	1.15
UACGUAGGUGGGUUUCCCCUGAUAGUGCUAAGGGGGCCUGGAAGUUUGGACUGGGCAGAGCUCAACACAGCGUGGCAAAGUGGCUGUGGCUAGACUGCCUCUCUGGAUUCCUCGUCACUCAGCAGGGCAUCUCUGAGAGAGAUGCC [U12G A141G]	1.22
UACGUAGGUGGGUUUCCCCUGAUAGUGCUAAGGGGGCCUGGAAGUUUGGACUGGGCAGAGCUCAACACAGCGUGGCAAAGUGGCUGUGGCUAGACUGCCUCUCUGGUUUCCUCGUCACUCAGCAGGGCAUCUCUGAGAGAAAUGCC [U12G A107U]	0.98
UACGUAGGUGGGUUUCCCCUGAUAGUGCUAAGGGGGCCUGGAAGUUUGGACUGGGCAGAGCUCAACACAGCGUGGCAAAGUGGCUGUGGCUAGACUGCCUCUCUGGGUUCCUCGUCACUCAGCAGGGCAUCUCUGAGAGAAAUGCC [U12G A107G]	1.58
UACGUAGGUGGGUUUCCCCUGCUAGUGCUAAGGGGGCCUGGAAGUUUGGACUGGGCAGAGCUCAACACAGCGUGGCAAAGUGGCUGUGGCUAGACUGCCUCUCUGGAUUCCUCGUCACUCAGCAGGGCAUCUCUGAGAGAAAUGCC [U12G A22C]	1.68
UACGUAGGUGGGUUUCCCCUGAUAGUGCUAAGGGGGCCUGGAAGUUUGGACUGGGCAGAGCUCAACACAGCGUGGCAAAGUGGCUGUGGCUAGUCUGCCUCUCUGGAUUCCUCGUCACUCAGCAGGGCAUCUCUGAGAGAAAUGCC [U12G A94U]	0.24
UACGUAGGUGGGUUUCCCCUGAUAGUGCUAAGGGGGCCUGGAAGUUUGGACUGGGCAGAGCUCAACACAGCGUGGCAAAGUGGCUGUGGCUAGGCUGCCUCUCUGGAUUCCUCGUCACUCAGCAGGGCAUCUCUGAGAGAAAUGCC [U12G A94G]	0.42
UACGUAGGUGGGUUUCCCUUGAUAGUGCUAAGGGGGCCUGGAAGUUUGGACUGGGCAGAGCUCAACACAGCGUGGCAAAGUGGCUGUGGCUAGACUGCCUCUCUGGAUUCCUCGUCACUCAGCAGGGCAUCUCUGAGAGAAAUGCC [U12G C19U]	1.09
UACGUAGGUGGGUUUCCCCUGAUAGUGCUAAGGGGGCCUGGAAGUUUGGACUGGGCGGAGCUCAACACAGCGUGGCAAAGUGGCUGUGGCUAGACUGCCUCUCUGGAUUCCUCGUCACUCAGCAGGGCAUCUCUGAGAGAAAUGCC [U12G A57G]	1.42
UACGUAGGUGGGUUUCCCCUGAUAGUGCUAAGGGGGCCUGGAAGUUUGGACUGGGCAGAGCUCAACACAGCGUGGCAAAGUGGCUGUGGCUUGACUGCCUCUCUGGAUUCCUCGUCACUCAGCAGGGCAUCUCUGAGAGAAAUGCC [U12G A92U]	0.62
UACGUAGGUGGGUUUCCCCUGAUAGUGCUAAGGGGGCCUGGAAGUUUGGACUGGGCAGAGCUCAACACAGCGUGGCAAAGUGGCUGUGGCUGGACUGCCUCUCUGGAUUCCUCGUCACUCAGCAGGGCAUCUCUGAGAGAAAUGCC [U12G A92G]	0.21
UACGUAGGUGGGUUUCCCCUGAUAGUGCUAAGGGGGCCUGGAAGUUUGGACUGGGCAGAGCUCAACACAGCGUGGCAAAGUGGCUGUGGCUAGACUGCCUCUCUGGAUUCCUUGUCACUCAGCAGGGCAUCUCUGAGAGAAAUGCC [U12G C113U]	0.66

Variant	self-cleavage
UACGUAGGUGGGUUUCCCCUGAUAGUGCUAAGGGGGCCUGGAAGUUUGGACUGGGCAGAGCUCAACACAGCGUGGCAAAGUGGCUGUGGCUAGACUGUCUCUCUGGAUUCCUCGUCACUCAGCAGGGCAUCUCUGAGAGAAAUGCC [U12G C98U]	0.41
UACGUAGGUGGGUUUCCCCUGAUAGUGCUAAGGGGGCCUGGAAGUUUGGACUGGGCAGAGCUCAACACAGCGUGGCAAAGUGGCUGUGGCUAGACUGCCUCUCUGGAUUCCUCGUCGCUCAGCAGGGCAUCUCUGAGAGAAAUGCC [U12G A117G]	1.35
UACGUAGGUGGGUUUCCCCUGAUAGUGCUAAGGGGGCCUGGAAGUUUGGACUGGGCAGAGCUCAUCACAGCGUGGCAAAGUGGCUGUGGCUAGACUGCCUCUCUGGAUUCCUCGUCACUCAGCAGGGCAUCUCUGAGAGAAAUGCC [U12G A65U]	0.23
UACGUAGGUGGGUUUCCCCUGAUAGUGCUAAGGGGGCCUGGCAGUUUGGACUGGGCAGAGCUCAACACAGCGUGGCAAAGUGGCUGUGGCUAGACUGCCUCUCUGGAUUCCUCGUCACUCAGCAGGGCAUCUCUGAGAGAAAUGCC [U12G A42C]	1.1
UACGUAGGUGGGUUUCCCCUGAUAGUGCUAAGGGGGCCUGGAAGUUUGGACUGGGCAGAGCUCAACACAGCGUGGCGAAGUGGCUGUGGCUAGACUGCCUCUCUGGAUUCCUCGUCACUCAGCAGGGCAUCUCUGAGAGAAAUGCC [U12G A77G]	1.41
UACGUAGGUGGGUUUCCCCUGAUAGUGCUAAGGGGGCCUGGAAGUUUGGACUGGGCAGAGCUCAACACAGCGUGGCAAAGUGGCUGUGGCUAGACUGCCUCUCUGGAUUCCUCGUCACUCAGCAGGGCAUCUCUGAGUGAAAUGCC [U12G A138U]	1.02
UACGUAGGUGGGUUUCCCCUGAUAGUGCUAAGGGGGCCUGGAAGUUUGGACUGGGCAGAGCUCAACACAGCGUGGCAAAGUGGCUGUGGCUAGACUGCCUCUCUGGAUUCCUCGUCACUCAGCAGGGCAUCUCUGAGAGAACUGCC [U12G A142C]	0.93
UACGUAGGUGGGUUUCCCCUGAUAGUGCUAAGGGGGCCUGGAAGUUUGGACUGGGCAGAGCUCAACACAGCGUGGCAAAGUGGCUGUGGCUAGACUGCCUCUCUGGAUUCCUCGUCACUCAGCAGGGCAUCUCUGAGAGAAGUGCC [U12G A142G]	0.83
UACGUAGGUGGGUUUCCCCUGAUAGUGCUAAGGGGGCCUGGAAGUUUGGACUGGGCAGAGCUCAACACAGCGUGGCAAAGUGGUUGUGGCUAGACUGCCUCUCUGGAUUCCUCGUCACUCAGCAGGGCAUCUCUGAGAGAAAUGCC [U12G C84U]	0.2
UACGUAGGUGGGUUUCCCCUGAUAGUGCUAAGGGGGCCUGGAAGUUUGGACUGGGCAGAGCUCAACACAGCGUGGCAAGGUGGCUGUGGCUAGACUGCCUCUCUGGAUUCCUCGUCACUCAGCAGGGCAUCUCUGAGAGAAAUGCC [U12G A79G]	1.25
UACGUAGGUGGGUUUCCCCUGAUAGUGCUAAGGGGGCCUGGAAGUUUGGACUGGGCAGAGCUCGACACAGCGUGGCAAAGUGGCUGUGGCUAGACUGCCUCUCUGGAUUCCUCGUCACUCAGCAGGGCAUCUCUGAGAGAAAUGCC [U12G A64G]	0.52
UACGUAGGUGGGUUUCCCCUGAUAGUGCUAAGGGGGCCUGGAAGUUUGGACUGGGCAGAGCUCCACACAGCGUGGCAAAGUGGCUGUGGCUAGACUGCCUCUCUGGAUUCCUCGUCACUCAGCAGGGCAUCUCUGAGAGAAAUGCC [U12G A64C]	0.55
UACGUAGGUGGCUUUCCCCUGAUAGUGCUAAGGGGGCCUGGAAGUUUGGACUGGGCAGAGCUCAACACAGCGUGGCAAAGUGGCUGUGGCUAGACUGCCUCUCUGGAUUCCUCGUCACUCAGCAGGGCAUCUCAGAGAGAAAUGCC [U12C U134A]	1.22
UACGUAGGUGGGUUUCCCCUGAUAGUGCUAAGGGGGCCUGGAAGUUUGGACUGGGCAGAGAUCAACACAGCGUGGCAAAGUGGCUGUGGCUAGACUGCCUCUCUGGAUUCCUCGUCACUCAGCAGGGCAUCUCUGAGAGAAAUGCC [U12G C61A]	0.14
UACGUAGGUGGGUUUCCCCUGAUAGUGCUAAGGGGGCCUGGAAGUUUGGUCUGGGCAGAGCUCAACACAGCGUGGCAAAGUGGCUGUGGCUAGACUGCCUCUCUGGAUUCCUCGUCACUCAGCAGGGCAUCUCUGAGAGAAAUGCC [U12G A50U]	1.16
UACGUAGGUGGGUUUCCCCUGAUAGUGCUAAGGGGGCCUGGAAGUUUGGGCUGGGCAGAGCUCAACACAGCGUGGCAAAGUGGCUGUGGCUAGACUGCCUCUCUGGAUUCCUCGUCACUCAGCAGGGCAUCUCUGAGAGAAAUGCC [U12G A50G]	1.2
UACGUAGGUGGGUUUCCCCUGAUAGUGCUAAGGGGGCCUGGAUGUUUGGACUGGGCAGAGCUCAACACAGCGUGGCAAAGUGGCUGUGGCUAGACUGCCUCUCUGGAUUCCUCGUCACUCAGCAGGGCAUCUCUGAGAGAAAUGCC [U12G A43U]	0.81
UACGUAGGUGGGUUUCCCCUGAUAGUGCUAAGGGGGCCUGGAGGUUUGGACUGGGCAGAGCUCAACACAGCGUGGCAAAGUGGCUGUGGCUAGACUGCCUCUCUGGAUUCCUCGUCACUCAGCAGGGCAUCUCUGAGAGAAAUGCC [U12G A43G]	1.41
UACGUAGGUGGGUUUCCCCUGAUAGUGCUAAGGGGGCCUGGACGUUUGGACUGGGCAGAGCUCAACACAGCGUGGCAAAGUGGCUGUGGCUAGACUGCCUCUCUGGAUUCCUCGUCACUCAGCAGGGCAUCUCUGAGAGAAAUGCC [U12G A43C]	1.02
